From patent publication US20260069656A1, “Nutritive Polypeptides and Formulations Thereof, and Methods of Production and Use Thereof” (Axcella Health Inc., priority 2013, published 2026)

Assay: Intact half-life during simulated gastric fluid (SGF) digestion
Details: SGF pH 1.5, pepsin:polypeptide 1:20 w/w, 37° C.; produced in E. coli unless otherwise noted

B1: SEQID-00343: nutritive polypeptide (protein)
chain: MATLIAPSHHSRVEDAEALRNAFKGWGADDKAIIAILGHRNVHQRQEIRKAYEEIYQEDLIKRLESEISGDFERAMYRWMLQPADRDAVLVNVAIKNGTKDYHVIAEIACVLSAEELLAVRRAYHRRYKCSLEEDVAANTTGNLRQLLVGLVTSYRYEGDEINVKFSQTEANVLHESVKEKKGNSEEVIRILTTRSKTQLVATFNRYRDEHGISISKKLLDQTSDDFHKVLHTAIRCINDHKKYYEKVLRNAVKKFGTDEDGLSRVIVTRAEKDLKDIKELYYKRNSVHLEDEVSKETSGDYKKFLLTLLGK
modifications: Glycine max
Q: For B1, which “SGF Half-life (t½)” value is on record?
A: 18 s

B2: SEQID-00356: nutritive polypeptide (protein)
chain: MATAAEKLSALKSAVAGLNEISENEKNGFISLVGRYLSGEAQHVEWSKIQTPTDEVVVPYDTLAPTPEGSSEVKNLLDKLVVLKLNGGLGTTMGCTGPKSVIEVRDGLTFLDLIVIQIENLNSKYGSNVPLLLMNSFNTHDDTQKIVEKYQNSNIEIHTFNQSQYPRLVVEDFLPLPSKGHTDKDGWYPPGHGDVFPSLLNSGKLDALLSQGKEYVFVANSDNLGAIVDLKILNHLIQNKNEYCMEVTPKTLADVKGGTLISYEGRVQLLEIAQVPDEHVNEFKSIEKFKIFNTNNLWVNLNAVKRLVEADALKMEIIPNPKEVDGIKVLQLETAAGAAIRFFDKAIGINVPRSRFLPVKATSDLLLVQSDLYTLEDGFVIRNKARENPENPSIELGPEFKKVSNFLGRFKSIPSIVELDSLKVAGDVWFGAGVILKGKVSIVSKPGVKLEVPDGVAIVDKEINGPEDL
modifications: Glycine max
Q: For B2, which “SGF Half-life (t½)” value is on record?
A: 12 s

B3: SEQID-00346: nutritive polypeptide (protein)
chain: MYYDADANLDLLAGKTIAIVGYGSQGHAHALNLKDSGMNVIVGLYPGSKSATKAKDAGLTVYPVDEAAKIADLIMILLPDEVQKTVYKNEIEPNLSEGKTLAFAHGFNIHFGQVVPPENVDVIMVAPKGPGHLVRRTYQEGQGVPCLFAVYQDASGQARDRAMAYAKGIGGTRGGILETTFREETETDLFGEQAVLCGGLSALIKAGFETLVEAGYQPELAYFECLHEVKLIVDLVVEGGLAQMRDSISNTAEYGDYTRGPRVITDATRAEMRKILKEIQTGQFAREFVLENQSGKAGFTAMRRQEAEHPIEEVGHDLRAMFSWLKKKA
modifications: Arthrospira platensis NIES-39
Q: For B3, which “SGF Half-life (t½)” value is on record?
A: 12 s

B4: SEQID-00345: nutritive polypeptide (protein)
chain: MNTLDLQNQRILVTGGAGFLGKQVIDQLLKAGAKSENISVPRSHNCDLRNLEACQQAAKGQDIIIHLAAHVGGIGLNQVKPAELFYDNLMMGTQLIHSAYQAGVKKFVCVGTICAYPKFTPVPFQEDDLWNGYPEETNAPYGIAKKALLVQLQAYRQQYGFNGIYLLPVNLYGPEDNFNPKSSHVIPALVRKVYEAQQRGDKQLPVWGDGSPSREFLYSTDAARGIVMATQHYDEPDPVNLGTNSEVTIRDLVELICELMEFQGEIVWETDKPNGQPRRCLDTNRAKERFGFVAEVEFRQGLKNTIDWYRQNPDL
modifications: Arthrospira platensis NIES-39
Q: Which “SGF Half-life (t½)” value does the source give for B4 here?
A: 48 s

B5: SEQID-00354: nutritive polypeptide (protein)
chain: MSLSNKLTLDKLDVKGKRVVMRVDFNVPMKNNQITNNQRIKAAVPSIKYCLDSGAKSVVLMSHLGRPDGVPMPDKYSLQPVAVELKSLLGKDVLFLKDCVGPEVEKACADPAAGSVILLENLRFHVEEEGKGKDASGNKVKAEPTKIEAFRASLSKLGDVYVNDAFGTAHRAHSSMVGVNLPKKAGGFLMKKELNYFAKALESPERPFLAILGGAKVADKIQLISNMLDKVNEMIIGGGMAFTFLKVLNNMEIGTSLFDEEGSKIVKDLMSKADKNGVKITLPVDFVTADKFDENAKTGQATVASGIPVGWMGLDCGPESSKKYAEAVARAKQIVWNGPVGVFEWEAFARGTKALMDEVVKATSRGCITIIGGGDTATCCAKWNTEDKVSHVSTGGGASLELLEGKVLPGVDALSSV
modifications: Ovis aries
Q: With B5 as the molecule, how does the “SGF Half-life (t½)” value read?
A: 12 s

B6: SEQID-00298 (AN): nutritive polypeptide naturally produced in Cow (protein, listed as Bos taurus)
chain: MGLSDGEWQLVLNAWGKVEADVAGHGQEVLIRLFTGHPETLEKFDKFKHLKTEAEMKASEDLKKHGNTVLTALGGILKKKGHHEAEVKHLAESHANKHKIPVKYLEFISDAIIHVLHAKHPSDFGADAQAAMSKALELFRNDMAAQYKVLGFHG
Q: Which “SGF Half-life (t½)” value does the source give for B6 here?
A: 18 s

B7: SEQID-00298 (BS): nutritive polypeptide naturally produced in Cow (protein, listed as Bos taurus)
chain: MGLSDGEWQLVLNAWGKVEADVAGHGQEVLIRLFTGHPETLEKFDKFKHLKTEAEMKASEDLKKHGNTVLTALGGILKKKGHHEAEVKHLAESHANKHKIPVKYLEFISDAIIHVLHAKHPSDFGADAQAAMSKALELFRNDMAAQYKVLGFHG
Q: Which “SGF Half-life (t½)” value does the source give for B7 here?
A: 6 s

B8: SEQID-00357: nutritive polypeptide (protein)
chain: MKPLNRRTKIVATIGPASNSREVLYQMIQAGMNVVRLNFSHGSHEQHTKTVALLKEISQELKTSITLLQDLQGPKIRVGQLPDGGIQLMAGEYITLVPIDQYESKPNTIAIDYLHLGEEAEIGAQVLLDDGLLELKVEEISGNQVKCKIIEGGTLKSRKGVNLPSLTLRLPSLTEKDQQDLEFGISLGVDWVSLSFVRNAEDVRVLKDFLASKNASQISVMAKIEKPQAIANLEEIISECNGLMVARGDLGVEMSPERVPLLQKQIIRLCNQKGIPVITATQMLDSMINNPRPTRAEASDVANAIIDGTDAVMLSGESAVGKYPIRAVEMLAKIAEDVEPEINFINYPPAFNDETHAISEAINTIDKIIDLHCIIAYTCSGYTGQLAAAERPKAPVVALTPNPKVYHRLNLVWGVKPLLLEQEVESFEELINQAQTYLLVRQMASPGDKILIIGGIPSGKAKGTNFIKIHTIG
modifications: Arthrospira platensis NIES-39
Q: With B8 as the molecule, how does the “SGF Half-life (t½)” value read?
A: 12 s

B9: SEQID-00338 (BS): nutritive polypeptide (protein, listed as Saccharomyces cerevisiae)
chain: MSSSESIRMVLIGPPGAGKGTQAPNLQERFHAAHLATGDMLRSQIAKGTQLGLEAKKIMDQGGLVSDDIMVNMIKDELTNNPACKNGFILDGFPRTIPQAEKLDQMLKEQGTPLEKAIELKVDDELLVARITGRLIHPASGRSYHKIFNPPKEDMKDDVTGEALVQRSDDNADALKKRLAAYHAQTEPIVDFYKKTGIWAGVDASQPPATVWADILNKLGKD
modifications: strain ATCC 204508 / S288c
Q: Which “SGF Half-life (t½)” value does the source give for B9 here?
A: 12 s

B10: SEQID-00284: nutritive polypeptide (protein, listed as Arabidopsis thaliana)
chain: KLEHGVHVVSGTPGRVCDMIKRRSLRTRAIKLLILDESDEMLSRGFKDQIYDVYRYLPPDLQVCLVSATLPHEILEMTSKFMTEPVKILVKRDELTLEGIKQFFVAVEKEEWK
Q: Which “SGF Half-life (t½)” value does the source give for B10 here?
A: 60 s
